Experimental data reported in patent publication US20230340142A1 (SUZHOU NEOLOGICS BIOSCIENCE, published 2023).
Substitutions are numbered along the chain they refer to.

B1: ChVH3/ChVL3 (antibody, V domains shown)
VH: QVQLVQSGAEVKKPGASVKVSCKASGFNIKDTYMHWVRQAPGQGLEWIGRIDPANGNTKYDPKFQGRVTITTDTSANTAYMELSSLRSEDTAVYYCARGLGRWFAYWGQGTTVTVSS
VL: DIQMTQSPSSLSASVGDRVTITCQASQDVSNAVAWYQQKPGKAPKLLIYSASNLYTGVPSRFSGSGSGTDFTFTISSLQPEDIATYYCQQHDSTPLTFGQGTKLELK
notes: Humanized Clone C; constant regions (CH1-FC/CL) from the vector, expressed in 293F cells; also called humanized Clone C, Ch VH3 + Ch VL3
B2: ChVH4/ChVL3 (antibody, V domains shown)
VH: B1 VH with N77S, M81L
VL: B1 VL
notes: Humanized Clone C; constant regions (CH1-FC/CL) from the vector, expressed in 293F cells; also called humanized Clone C, Ch VH4 + Ch VL3
B3: ChVH2/ChVL2 (antibody, V domains shown)
VH: B1 VH with V68A, A76T, M81L
VL: B1 VL with Q24K, L54R
notes: Humanized Clone C; constant regions (CH1-FC/CL) from the vector, expressed in 293F cells; also called humanized Clone C, Ch VH2 + Ch VL2
B4: ChVH3/ChVL1 (antibody, V domains shown)
VH: B1 VH
VL: B1 VL with Q24K, L54R, S60D
notes: Humanized Clone C; constant regions (CH1-FC/CL) from the vector, expressed in 293F cells; also called humanized Clone C, Ch VH3 + Ch VL1
B5: ChVH5/ChVL1 (antibody, V domains shown)
VH: B1 VH with G44R, D61S, P62Q, T72R, N77S
VL: B1 VL with Q24K, L54R, S60D
notes: Humanized Clone C; constant regions (CH1-FC/CL) from the vector, expressed in 293F cells; also called humanized Clone C, Ch VH5 + Ch VL1
B6: ChVH1/ChVL1 (antibody, V domains shown)
VH: B1 VH with V20L, K23T, R38K, A40R, R67K, V68A, A76T, M81L
VL: B1 VL with Q24K, L54R, S60D
notes: Humanized Clone C; constant regions (CH1-FC/CL) from the vector, expressed in 293F cells; also called humanized Clone C, Ch VH1 + Ch VL1
B7: ChVH2/ChVL3 (antibody, V domains shown)
VH: B1 VH with V68A, A76T, M81L
VL: B1 VL
notes: Humanized Clone C; constant regions (CH1-FC/CL) from the vector, expressed in 293F cells; also called humanized Clone C, Ch VH2 + Ch VL3
B8: BhVH2/BhVL1 (antibody, V domains shown)
VH: QGQLVQSGAEVKKPGASVKVSCKTSGFTFSSSYISWVRQAPGQGLEWMGWIYAGTGGTSYNQKFTGRVTMTVDTSTSTAYMELRSLRSDDTAVYYCARHEGKYWYFDVWGQGTTVTVSS
VL: DIQMTQSPSSLSASVGDRVTITCSASSSVSYVHWYQQKPGKAPKPWIYDTSNLASGFPSRFSGSGSGTDYTLTISSLQPEDFATYYCHQRSSYPWTFGGGTKVEIK
notes: Humanized Clone B; VH and VL cloned into vectors carrying constant regions (CH1-FC/CL), expressed in 293F cells; also called humanized Clone B, Bh VH2 + Bh VL1
B9: BhVH2/BhVL8 (antibody, V domains shown)
VH: B8 VH
VL: EIVMTQSPATLSVSPGERATLSCSASSSVSYVHWYQQKPGQAPRPWIYDTSNLASGFPARFSGSGSGTEYTLTISSLQSEDAAVYYCHQRSSYPWTFGGGTKVEIK
notes: Humanized Clone B; constant regions (CH1-FC/CL) from the vector, expressed in 293F cells; also called humanized Clone B, Bh VH2 + Bh VL8
B10: BhVH5/BhVL8 (antibody, V domains shown)
VH: B8 VH with A16S, M70I, R84S, D89E
VL: B9 VL
notes: Humanized Clone B; constant regions (CH1-FC/CL) from the vector, expressed in 293F cells; also called humanized Clone B, Bh VH5 + Bh VL8
B11: BhVH3/BhVL3 (antibody, V domains shown)
VH: B8 VH with G2V
VL: B8 VL with S10T, P45L, W46L, F57V, D69E, Y70F, E80D
notes: Humanized Clone B; constant regions (CH1-FC/CL) from the vector, expressed in 293F cells; also called humanized Clone B, Bh VH3 + Bh VL3
B12: BhVH5/BhVL7 (antibody, V domains shown)
VH: B8 VH with A16S, M70I, R84S, D89E
VL: B9 VL with P45L, W46L, F57I, Y70F, A82F
notes: Humanized Clone B; constant regions (CH1-FC/CL) from the vector, expressed in 293F cells; also called humanized Clone B, Bh VH5 + Bh VL7
B13: BhVH2/BhVL7 (antibody, V domains shown)
VH: B8 VH
VL: B9 VL with P45L, W46L, F57I, Y70F, A82F
notes: Humanized Clone B; constant regions (CH1-FC/CL) from the vector, expressed in 293F cells; also called humanized Clone B, Bh VH2 + Bh VL7
B14: DhVH2/DhVL2 (antibody, V domains shown)
VH: QVQLVQSGAEVKKPGASVKVSCKASGYSFTGYTMNWVKQAHGQGLEWMGLIIPYNGGISYNQKFKDRVTMTVDTSISTAYMELSRLRSDDTAVYYCASLITTAPRDSMDYWGQGTLVTVSS
VL: DIQMTQSPSSLSASVGDRVTITCRASQDISNYLNWYQQKPGKAPKLLIYYTSKLHSGVPSRFSGSGSGTDFTLTISSLQPEDIATYYCQQGDALPWTFGGGTKVEIK
notes: Humanized Clone D; constant regions from the vector, 293F cells; also called humanized Clone D, Dh VH2 + Dh VL2
B15: DhVH-CDR graft/ DhVL-CDR graft (antibody, V domains shown)
VH: B14 VH with K38R, H41P, V72R, A79V
VL: B14 VL with L73F
notes: also called CDR-grafted humanized Clone D
B16: DhVH2/DhVL1 (antibody, V domains shown)
VH: B14 VH
VL: B14 VL with P8T, K42G, F71Y, P80Q
notes: Humanized Clone D; constant regions from the vector, 293F cells; also called humanized Clone D, Dh VH2 + Dh VL1
B17: DhVH3/DhVL2 (antibody, V domains shown)
VH: B14 VH with K38R, H41P
VL: B14 VL
notes: Humanized Clone D; constant regions from the vector, 293F cells; also called humanized Clone D, Dh VH3 + Dh VL2
B18: DhVH1/DhVL1 (antibody, V domains shown)
VH: B14 VH with A40S, M48I, V68A, M70L, I76S
VL: B14 VL with P8T, K42G, F71Y, P80Q
notes: Humanized Clone D; constant regions (CH1-FC/CL) from the vector, 293F cells; also called humanized Clone D, Dh VH1 + Dh VL1
B19: DhVH1/DhVL2 (antibody, V domains shown)
VH: B14 VH with A40S, M48I, V68A, M70L, I76S
VL: B14 VL
notes: Humanized Clone D; constant regions from the vector, 293F cells; also called humanized Clone D, Dh VH1 + Dh VL2
B20: DhVH3/DhVL1 (antibody, V domains shown)
VH: B14 VH with K38R, H41P
VL: B14 VL with P8T, K42G, F71Y, P80Q
notes: Humanized Clone D; constant regions from the vector, 293F cells; also called humanized Clone D, Dh VH3 + Dh VL1
B21: Chimeric D (antibody, V domains shown)
VH: EVQLQQSGPELVKPGASMKISCKASGYSFTGYTMNWVKQSHGKNLEWIGLIIPYNGGISYNQKFKDKATLTVDKSSSTAYMELLSLTSEDSAVYYCASLITTAPRDSMDYWGQGTSVTVSS
VL: DIQMTQTTSSLSASLGDRVTISCRASQDISNYLNWYQQKPDGSVKLLIYYTSKLHSGVPSRFSGSGSGTDYSLTISNLEQEDIATYFCQQGDALPWTFGGGTKLEIK
notes: also called chimeric Clone D
B22: Clone D (antibody, V domains shown)
VH: B21 VH
VL: B21 VL
notes: Mouse hybridoma clone
B23: Clone N (antibody, V domains shown)
VH: B21 VH with Y54H, I58T, S77R, I100M
VL: B21 VL with S43T, K53R, E79D, D92A, A93T
notes: Mouse hybridoma clone
B24: Clone B (antibody, V domains shown)
VH: QGQMQQSGAELVKPGASVKLSCKTSGFTFSSSYISWLKQKPGQSLEWIAWIYAGTGGTSYNQKFTGKAQLTVDTPSSTAYMQFSSLTTEDSAIYYCARHEGKYWYFDVWGAGTTVTVSS
VL: QILLTQSPAIMSASPGEKVTMTCSASSSVSYVHWYQQKPGSSPKPWIYDTSNLASGFPARFSGSGSGTSYSLIISSMEAEDAATYYCHQRSSYPWTFGGGTKLEIK
notes: Mouse hybridoma clone
B25: Clone C (antibody, V domains shown)
VH: EVQLQQSGADLVKPGASVKLSCTASGFNIKDTYMHWVKQRPEQGLEWIGRIDPANGNTKYDPKFQGKATITTDTSSNTAYLQLSSLTSEDTAVYYCARGLGRWFAYWGQGTLVTVSA
VL: DIVMTQSHKFMSTSVGDRVSITCKASQDVSNAVAWYQQKPGQSPELLIYSASNRYTGVPDRFTGSGSGTDFTFTISSVQAEDLAVYYCQQHDSTPLTFGAGTKLELK
notes: Mouse hybridoma clone

target: T1, human PD-L1 (human, UniProt Q9NZQ7 19-238, limits assumed); assay: Octet-96 BLI; antigen not named, taken as human PD-L1
T1 construct: also called hPD-L1
T1 sequence (Q9NZQ7 19-238 limits assumed): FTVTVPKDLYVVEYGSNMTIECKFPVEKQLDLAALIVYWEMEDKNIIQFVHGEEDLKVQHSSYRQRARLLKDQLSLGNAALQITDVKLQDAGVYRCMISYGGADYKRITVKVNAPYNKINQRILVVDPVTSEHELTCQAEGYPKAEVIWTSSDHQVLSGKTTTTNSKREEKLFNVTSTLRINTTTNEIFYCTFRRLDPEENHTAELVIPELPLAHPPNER

Kd	Binder
0.242 nM	B1
0.177 nM	B2
0.201 nM	B3
0.16 nM	B4
1.17 nM	B5
0.255 nM	B6
0.329 nM	B7
1.13 nM	B8
1.18 nM	B9
0.619 nM	B10
1.29 nM	B11
0.4 nM	B12
0.942 nM	B13
11.8 nM	B14
10.3 nM	B15
1.27 nM	B16
1.67 nM	B17
11.1 nM	B18
12.4 nM	B19
9.09 nM	B20
3.68 nM	B21

target: T2, human PD-L1 recombinant protein, PD-L1-his (human, UniProt Q9NZQ7 19-238); assay: Gator BLI; antibody on HFC sensor, PD-L1-his in solution; 1:1 fit
T2 construct: also called PD-L1 with a his-tag; not shown: his-tag
Experimental: PD-L1 antibodies were coupled to the surface of the HFC sensor (Probe Life), and human PD-L1 recombinant protein as the mobile phase was 2 times gradient diluted. The association and dissociation between PD-L1 protein and the antibodies on the surface of the sensor were measured. Specifically, the HFC sensor was prewetted in SD buffer (PBS containing 0.02% Tween-20 and 0.2% BSA) for 5-10 minutes, and then incubated in SD buffer containing antibodies for 1-3 minutes, allowing antibodies to be coupled to the sensor surface. The antibody-coupled HFC sensor was incubated in the SD buffer solution for 1 minute, and then incubated in the buffer solution containing different concentrations of PD-L1-his for 1-5 minutes to measure the association of PD-L1 protein to captured antibody. Finally, the sensor combining the antigen and antibody was incubated in SD buffer for 2-10 minutes to measure PD-L1 protein’s dissociation from sensor. The measured data were fitted using a 1:1 model, and the association rate (Kon) and the dissociation rate (Koff) were calculated. The equilibrium dissociation constant (kD) was calculated by the ratio Koff/Kon.

T2 sequence (Q9NZQ7 19-238 limits assumed): as above

Kd	koff	kon	Binder
3.68 nM	0.000826 s⁻¹	225000 M⁻¹ s⁻¹	B22
3.52 nM	0.000582 s⁻¹	165000 M⁻¹ s⁻¹	B23
5.94 nM	0.0006 s⁻¹	101000 M⁻¹ s⁻¹	B24
4.32 nM	0.00101 s⁻¹	234000 M⁻¹ s⁻¹	B25

target: T1, human PD-L1; assay: flow cytometry on RKO cells (PD-L1 on the cell surface), PE-labelled secondary antibody, MFI
Experimental: (§1) Glycosylation differences in cancer cell lines of different tissue origin may affect the binding affinity between PD-L1 antibody and PD-L1. In this study, five cell lines were selected, namely BT20(Breast), mb-231 (Breast), A375(Melanoma), HCC827(Lung), and RKO(Colon). Cells were re-suspended with FACS buffer (1%BSA in PBS), and 50 µl cell suspension per well was added to the 96-well U-bottom plate (Corning, catalog#3795). The purified antibody to be tested was diluted in gradient, then 50 µl was added to each well and incubated at 4° C. for 1 hour. After washing by FACS buffer for three times, the cells were incubated with PE-labeled fluorescent secondary antibody and incubated at 4° C. for half an hour. Cells were washed three times with FACS buffer and resuspended to 200 uL/ well. The fluorescence signal was detected using Canto II flow cytometry (BD).

EC50 (read off the curve)	Binder
~0.02 µg/mL	B22
~0.03 µg/mL	B23
~0.04 µg/mL	B24
~0.02 µg/mL	B25

target: T1, human PD-L1; assay: flow cytometry on BT20 cells (PD-L1 on the cell surface), PE-labelled secondary antibody, MFI
Experimental: as §1

EC50 (read off the curve)	Binder
~0.01 µg/mL	B22
~0.007 µg/mL	B23
~0.02 µg/mL	B25

target: T1, human PD-L1; assay: flow cytometry on HCC827 cells (PD-L1 on the cell surface), PE-labelled secondary antibody, MFI
Experimental: as §1

EC50 (read off the curve)	Binder
~0.02 µg/mL	B22
~0.02 µg/mL	B23
~0.05 µg/mL	B24
~0.03 µg/mL	B25

target: T1, human PD-L1; assay: flow cytometry on MDA-MB-231 cells (PD-L1 on the cell surface), PE-labelled secondary antibody, MFI
Experimental: as §1

EC50 (read off the curve)	Binder
~0.03 µg/mL	B22
~0.03 µg/mL	B23
~0.06 µg/mL	B24
~0.03 µg/mL	B25
